Reference: publication PMC9436389 (Frontiers in Immunology, 2022)

Legend:
[1] = biological target: NiV F[change] (recombinant NiV sF glycoprotein in its postfusion conformation) (Nipah virus); assay: SEC
[2] = biological target: EBOV GP[change] (unstabilised, ectodomain-only Ebola virus glycoprotein without mucin-like domain) (Ebola virus (Mayinga 1976 strain)) (UniProt Q05320); assay: SEC

Substance | stoichiometry N [1] | stoichiometry N [2]
NiV F[change] (recombinant NiV sF glycoprotein in its postfusion conformation) (domain or fragment) | 3 | 
EBOV GP[change] (unstabilised, ectodomain-only Ebola virus glycoprotein without mucin-like domain) (from UniProt Q05320) (domain or fragment) |  | 3
